Results reported in patent publication US20260226152A1 (GlaxoSmithKline, published 2026).

Assays:
Human IL-18 [1] = target: T1, Human IL-18 (human, UniProt Q14116 37-193); assay: cell-based or functional assay
T1 sequence: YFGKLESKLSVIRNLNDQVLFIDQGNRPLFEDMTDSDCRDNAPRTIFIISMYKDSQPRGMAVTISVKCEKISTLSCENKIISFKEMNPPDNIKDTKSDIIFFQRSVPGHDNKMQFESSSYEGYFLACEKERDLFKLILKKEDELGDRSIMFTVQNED

Human IL-23 [2] = target: T2, Human IL-23 (human, UniProt Q9NPF7 20-189; P29460 23-328); assay: cell-based or functional assay
T2 sequence 1: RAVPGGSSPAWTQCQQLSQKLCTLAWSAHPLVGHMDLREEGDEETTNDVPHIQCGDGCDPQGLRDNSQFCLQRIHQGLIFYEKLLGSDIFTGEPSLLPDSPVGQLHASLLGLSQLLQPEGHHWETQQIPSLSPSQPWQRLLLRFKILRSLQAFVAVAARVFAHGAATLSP
T2 sequence 2: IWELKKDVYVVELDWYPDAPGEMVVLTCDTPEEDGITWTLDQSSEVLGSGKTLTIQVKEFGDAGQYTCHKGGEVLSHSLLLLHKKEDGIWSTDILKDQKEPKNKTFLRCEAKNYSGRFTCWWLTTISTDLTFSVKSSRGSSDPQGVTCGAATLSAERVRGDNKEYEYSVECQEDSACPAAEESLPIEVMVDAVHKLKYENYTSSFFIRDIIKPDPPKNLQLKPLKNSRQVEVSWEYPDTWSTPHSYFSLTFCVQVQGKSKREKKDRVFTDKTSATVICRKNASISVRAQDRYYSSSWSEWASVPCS

Human IL-18 [3] = target: T1, Human IL-18; assay: cell-based or functional assay; remark: listed apart in the source
Human IL-23 [4] = target: T2, Human IL-23; assay: cell-based or functional assay; remark: listed apart in the source
Human IL-18 [5] = target: T1, Human IL-18; assay: SPR (Biacore), antibody captured on Protein A/G, cytokine as analyte, 25 C, 1:1 fit, n=1
Description: (§1) A heterodimeric bsAb, alongside anti-IL-18 and anti-IL-23 common light chain control bispecific antibodies, were assessed for binding to human and cyno IL-18 and IL-23, using the Biacore 8K and T200 (Cytiva) surface plasmon resonance (SPR) instruments. All reagents were generated recombinantly in-house with the exception of Rhesus monkey IL-18 which was purchased from R&D systems (Cat #2548-RM-025/CF). Rhesus and cynomolgus monkey amino acid sequences are identical. Therefore, the protein will be referred to as cynomolgus monkey IL-18.
(§2) Heterodimeric bsAb, anti-IL-18 and anti-IL-23 common light chain bispecific control molecules were assessed for binding to recombinant human and cynomolgus monkey IL-18 and IL-23 using the Biacore 8K and T200 (Cytiva) SPR instruments. The antibodies were captured onto Protein A/G, which was immobilised onto flow cell 2 of 8 channels (Biacore 8K) or flow cells 2, 3 and 4 (Biacore T200) of a CM5 series S sensor chip by primary amine coupling. The IL-18 or IL-23 analytes were passed over the captured antibodies at varying concentrations between 0.04-25 nM. The association phase was for 240 seconds at 30 μl/min, followed by a dissociation step of up to 1200 seconds. A 0 nM (i.e., buffer alone) injection was used to double reference the binding curves. Regeneration of the chip surface between cycles was carried out using 50 mM NaOH. The assay was run at 25° C. in HBS-EP⁺ buffer. Biacore 8K control software version 3.0 was used to run the experiment. Data was analysed using Biacore 8K Insight evaluation software version 3.0. Biacore T200 control software version 1.0 was used to run the experiment. Data was analysed using Biacore T200 evaluation software version 2.0. Affinities and kinetics were determined using the 1:1 kinetic fit inherent to the software where possible. All affinity values generated using both instruments were combined to determine geometric mean values.

Human IL-23 [6] = target: T2, Human IL-23; assay: as above
Description: as §1, §2

Human IL-18 [7] = target: T1, Human IL-18; assay: SPR (Biacore), antibody captured on Protein A/G, cytokine as analyte, 25 C
Description: as §1, §2

Human recombinant IL-12 = target: T3, Human recombinant IL-12 (human, UniProt P29459 23-219); assay: cell-based or functional assay
T3 sequence 1: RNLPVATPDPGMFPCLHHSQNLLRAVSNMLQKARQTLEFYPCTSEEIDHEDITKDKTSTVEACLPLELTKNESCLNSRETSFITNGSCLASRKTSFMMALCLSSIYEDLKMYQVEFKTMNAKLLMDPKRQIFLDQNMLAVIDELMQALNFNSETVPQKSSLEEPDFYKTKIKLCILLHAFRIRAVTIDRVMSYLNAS
T3 sequence 2: T2 sequence 2

B1: Heterodimeric bsAb 3 (bispecific antibody, human IgG1, kappa)
heavy 1: QVQLVQSGAEVKKPGASVKVSCKVSGEISTGYYFHWVRQAPGKGLEWMGRIDPEDDSTKYAERFKDRVTMTEDTSTDTAYMELSSLRSEDTAVYYCTTWRIYRDSSGRPFYVMDAWGQGTLVTVSSASTKGPSVFPLAPSSKSTSGGTAALGCEVTDYFPEPVTVSWNSGALTSGVHTFPAVLESSGLYSLSSVVTVPSSSLGTQTYICNVNHKPSNTKVDKKVEPKSCDKTHTCPPCPAPELAGAPSVFLFPPKPKDTLMISRTPEVTCVVVDVSHEDPEVKFNWYVDGVEVHNAKTKPREEQYNSTYRVVSVLTVLHQDWLNGKEYKCKVSNKALPAPIEKTISKAKGQPREPQVYVYPPSRDELTKNQVSLTCLVKGFYPSDIAVEWESNGQPENNYKTTPPVLDSDGSFALVSKLTVDKSRWQQGNVFSCSVMHEALHNHYTQKSLSLSPGK
light 1: DIQMTQSPSSVSASVGDRVTITCLASEDIYTYLTWYQQKPGKAPKLLIYGANKLQDGVPSRFSGSGSGTDYTLTISSLQPEDFATYYCLQGSKFPLTFGQGTKLEIKRTVAAPSVFIFPPSDERLKSGTASVVCLLNNFYPREAKVQWKVDNALQSGNSQESVTEQDSKDSTYSLSSRLTLSKADYEKHKVYACEVTHQGLSSPVTKSFNRGEC
heavy 2: QVQLVQSGAEVKKPGASVKVSCKASGYIFITYWMTWVRQAPGQGLEWMGQIFPASGSADYNEKFEGRVTMTTDTSTSTAYMELRSLRSDDTAVYYCARGGGGFAYWGQGTLVTVSSASTKGPSVFPLAPSSKSTSGGTAALGCRVKDYFPEPVTVSWNSGALTSGVHTFPAVLQSSGLYSLSSVVTVPSSSLGTQTYICNVNHKPSNTKVDKKVEPKSCDKTHTCPPCPAPELAGAPSVFLFPPKPKDTLMISRTPEVTCVVVDVSHEDPEVKFNWYVDGVEVHNAKTKPREEQYNSTYRVVSVLTVLHQDWLNGKEYKCKVSNKALPAPIEKTISKAKGQPREPQVYVLPPSRDELTKNQVSLLCLVKGFYPSDIAVEWESNGQPENNYLTWPPVLDSDGSFFLYSKLTVDKSRWQQGNVFSCSVMHEALHNHYTQKSLSLSPGK
light 2: DIQMTQSPSSLSASVGDRVTITCRTSENIYSYLAWYQQKPGKAPKLLIYNAKTLAEGVPSRFSGSGSGTDFTLTISSLQPEDFATYYCQHHYGIPFTFGQGTKVEIKRTVAAPSVFIFPPSDEELKSGTASVECLLNNFYPREAKVQWKVDNALQSGNSQESVTEQDSKDSTYSLSSTLTLSKADYEKHKVYACEVTHQGLSSPVTKSFNRGEC
notes: Het-mAb format: anti-IL-18 mAb on ZA and anti-IL-23 mAb (tildrakizumab) on ZB, with Fc heterodimerisation and silencing mutations
IC50 (pM, Mean), neutralisation of human IL-18-induced IFNγ secretion by KG-1 cells (Human IL-18 [1]): 105 pM | pIC50 (GeoMean), neutralisation of human IL-18-induced IFNγ secretion by KG-1 cells (Human IL-18 [1]): 9.98 | IC50 Heterodimeric bsAb (% of Parent IL-23 control 3), IL-23-induced mouse IL-17A in mouse splenocytes (Human IL-23 [2]): 387 % of Parent | IC50 Heterodimeric bsAb (pM), inhibition of human IL-23-induced mouse IL-17A secretion in mouse splenocytes (Human IL-23 [2]): 2670 pM | IC50 Heterodimeric bsAbs (% of Parent IL-18 control 3), LPS + IL12-induced IFN-γ in human whole blood (Human IL-18 [3]): 280 % of Parent | IC50 Heterodimeric bsAbs (nM), inhibition of LPS + IL12-induced IFN-γ in human whole blood (Human IL-18 [3]): 21.7 nM | IC50 Heterodimeric bsAbs (% of Parent IL-23 control 3), IL-23-induced pSTAT3 in T cells of human whole blood (Human IL-23 [4]): 100 % of Parent | IC50 Heterodimeric bsAbs (pM), inhibition of IL-23-induced pSTAT3 in CD3+CD161+ T cells of human whole blood (Human IL-23 [4]): 640 pM | Kd (Human IL-18 [5]): < 10 pM | Kd (Human IL-23 [6]): 499 pM

B2: IL-23 control 2 (antibody, V domains shown)
VH: QVQLVQSGAEVKKPGSSVKVSCKASGYTFTDQTIHWMRQAPGQGLEWIGYIYPRDDSPKYNENFKGKVTITADKSTSTAYMELSSLRSEDTAVYYCAIPDRSGYAWFIYWGQGTLVTVSS
VL: DIQMTQSPSSLSASVGDRVTITCKASRDVAIAVAWYQQKPGKVPKLLIYWASTRHTGVPSRFSGSGSRTDFTLTISSLQPEDVADYFCHQYSSYPFTFGSGTKLEIK
notes: Anti-IL-23 (risankizumab) mAb plus Het-mAb Fc mutations of Heterodimeric bsAbs 1-4 and silencing (LAGA) mutations; also called risankizumab variable domains
pIC50 (GeoMean), neutralisation of human IL-18-induced IFNγ secretion by KG-1 cells (Human IL-18 [1]): < 8.48 | IC50 Parent (pM), inhibition of human IL-23-induced mouse IL-17A secretion in mouse splenocytes (run with Heterodimeric bsAb-1) (Human IL-23 [2]): 60 pM | IC50 Parent (pM), inhibition of human IL-23-induced mouse IL-17A secretion in mouse splenocytes (run with Heterodimeric bsAb-2) (Human IL-23 [2]): 53.3 pM | binding result (Human IL-18 [7]): no binding (tested: 0.04-25 nM analyte) | IC50 Parent (pM), inhibition of IL-23-induced pSTAT3 in T cells of human whole blood (run with Heterodimeric bsAb-1) (Human IL-23 [4]): 282 pM | IC50 Parent (pM), inhibition of IL-23-induced pSTAT3 in T cells of human whole blood (run with Heterodimeric bsAb-2) (Human IL-23 [4]): 286 pM | Kd (Human IL-23 [6]): 163 pM

B3: IL-23 control 3 (antibody, V domains shown)
VH: QVQLVQSGAEVKKPGASVKVSCKASGYIFITYWMTWVRQAPGQGLEWMGQIFPASGSADYNEKFEGRVTMTTDTSTSTAYMELRSLRSDDTAVYYCARGGGGFAYWGQGTLVTVSS
VL: DIQMTQSPSSLSASVGDRVTITCRTSENIYSYLAWYQQKPGKAPKLLIYNAKTLAEGVPSRFSGSGSGTDFTLTISSLQPEDFATYYCQHHYGIPFTFGQGTKVEIK
notes: Anti-IL-23 (tildrakizumab) plus Het-mAb Fc mutations of Heterodimeric bsAbs 1-4 and half-life extending (YTE) mutations; also called tildrakizumab variable domains
IC50 Parent (pM), inhibition of human IL-23-induced mouse IL-17A secretion in mouse splenocytes (run with Heterodimeric bsAb-3) (Human IL-23 [2]): 687 pM | binding result (Human IL-18 [7]): no binding (tested: 0.04-25 nM analyte) | IC50 Parent (pM), inhibition of IL-23-induced pSTAT3 in T cells of human whole blood (run with Heterodimeric bsAb-3) (Human IL-23 [4]): 637 pM | Kd (Human IL-23 [6]): 576 pM

B4: Ustekinumab (antibody, V domains shown)
VH: EVQLVQSGAEVKKPGESLKISCKGSGYSFTTYWLGWVRQMPGKGLDWIGIMSPVDSDIRYSPSFQGQVTMSVDKSITTAYLQWNSLKASDTAMYYCARRRPGQGYFDFWGQGTLVTVSS
VL: DIQMTQSPSSLSASVGDRVTITCRASQGISSWLAWYQQKPEKAPKSLIYAASSLQSGVPSRFSGSGSGTDFTLTISSLQPEDFATYYCQQYNIYPYTFGQGTKLEIK
IC50 (pM), inhibition of IL-12-induced IFNγ secretion by NK-92 cells (Human recombinant IL-12): 875 pM | IC50 (ug/mL), inhibition of IL-12-induced IFNγ secretion by NK-92 cells (Human recombinant IL-12): 0.13 µg/mL
